These results are taken from article PMC3478855.

What all share (experiment): SPR
On the technique in general: In SPR one partner is held on a chip, and binding of the other changes the refractive index at the surface.

Data set [1] relates to hemagglutinin (HA) of AIV H5N1, purified (Influenza A virus H5N1). The conditions noted are these: PBS 10 mM pH 7.4, temperature not stated; cited from earlier work.
Data set [2] concerns inactivated AIV H7N2 whole virus (Influenza A virus H7N2). As to conditions: biotin, PBS 10 mM pH 7.4, temperature not stated.
The test system of data set [3] is inactivated AIV H1N1 whole virus (Influenza A virus H1N1). As to conditions: biotin, PBS 10 mM pH 7.4, temperature not stated.
The subject of data set [4] is inactivated AIV H2N2 whole virus (Influenza A virus H2N2). As to conditions: biotin, PBS 10 mM pH 7.4, temperature not stated.
Data set [5] has as its system AIV H5N9 whole virus (Influenza A virus H5N9). The conditions noted are these: biotin, PBS 10 mM pH 7.4, temperature not stated.
The test system of data set [6] is inactivated AIV H5N2 whole virus (Influenza A virus H5N2). The conditions noted are these: biotin, PBS 10 mM pH 7.4, temperature not stated.
Data set [7] relates to inactivated AIV H5N1 whole virus (HA on virion) (Influenza A virus H5N1). As to conditions: biotin, PBS 10 mM pH 7.4, temperature not stated.
Data set [8] concerns inactivated AIV H9N2 whole virus (Influenza A virus H9N2). As to conditions: biotin, PBS 10 mM pH 7.4, temperature not stated.

For “GTGTGCATGGATAGCACGTAACGGTGTAGTAGATACGTGCGGGTAGGAAGAAAGGGAAATAGTTGTCCTGTTG [H5N1 DNA aptamer, best candidate (previous study)]”, the Kd in data set [1] was 4.65 nM.

Regarding “GTGTGCATGGATAGCACGTAACGGTGTAGTAGATACGTGCGGGTAGGAAGAAAGGGAAATAGTTGTCCTGTTG [H5N1 DNA aptamer, biotinylated (sensor)]”, the binding signal was 7 RI 10^-6 in data set [2]; -4 RI 10^-6 in data set [3]; -1 RI 10^-6 in data set [4]; 3 RI 10^-6 in data set [5]; 10 RI 10^-6 in data set [6]; 262 RI 10^-6 in data set [7]. The same sequence yielded a binding signal in data set [8] of 2 RI 10^-6.

As usually defined, the Kd is the constant that tells how readily two partners part at equilibrium.
